Measurements as given in PMC10197580.

Biological target: T1, CST with the His6-MBP tag cleaved (human), Q2NKJ3
T1 chain 1: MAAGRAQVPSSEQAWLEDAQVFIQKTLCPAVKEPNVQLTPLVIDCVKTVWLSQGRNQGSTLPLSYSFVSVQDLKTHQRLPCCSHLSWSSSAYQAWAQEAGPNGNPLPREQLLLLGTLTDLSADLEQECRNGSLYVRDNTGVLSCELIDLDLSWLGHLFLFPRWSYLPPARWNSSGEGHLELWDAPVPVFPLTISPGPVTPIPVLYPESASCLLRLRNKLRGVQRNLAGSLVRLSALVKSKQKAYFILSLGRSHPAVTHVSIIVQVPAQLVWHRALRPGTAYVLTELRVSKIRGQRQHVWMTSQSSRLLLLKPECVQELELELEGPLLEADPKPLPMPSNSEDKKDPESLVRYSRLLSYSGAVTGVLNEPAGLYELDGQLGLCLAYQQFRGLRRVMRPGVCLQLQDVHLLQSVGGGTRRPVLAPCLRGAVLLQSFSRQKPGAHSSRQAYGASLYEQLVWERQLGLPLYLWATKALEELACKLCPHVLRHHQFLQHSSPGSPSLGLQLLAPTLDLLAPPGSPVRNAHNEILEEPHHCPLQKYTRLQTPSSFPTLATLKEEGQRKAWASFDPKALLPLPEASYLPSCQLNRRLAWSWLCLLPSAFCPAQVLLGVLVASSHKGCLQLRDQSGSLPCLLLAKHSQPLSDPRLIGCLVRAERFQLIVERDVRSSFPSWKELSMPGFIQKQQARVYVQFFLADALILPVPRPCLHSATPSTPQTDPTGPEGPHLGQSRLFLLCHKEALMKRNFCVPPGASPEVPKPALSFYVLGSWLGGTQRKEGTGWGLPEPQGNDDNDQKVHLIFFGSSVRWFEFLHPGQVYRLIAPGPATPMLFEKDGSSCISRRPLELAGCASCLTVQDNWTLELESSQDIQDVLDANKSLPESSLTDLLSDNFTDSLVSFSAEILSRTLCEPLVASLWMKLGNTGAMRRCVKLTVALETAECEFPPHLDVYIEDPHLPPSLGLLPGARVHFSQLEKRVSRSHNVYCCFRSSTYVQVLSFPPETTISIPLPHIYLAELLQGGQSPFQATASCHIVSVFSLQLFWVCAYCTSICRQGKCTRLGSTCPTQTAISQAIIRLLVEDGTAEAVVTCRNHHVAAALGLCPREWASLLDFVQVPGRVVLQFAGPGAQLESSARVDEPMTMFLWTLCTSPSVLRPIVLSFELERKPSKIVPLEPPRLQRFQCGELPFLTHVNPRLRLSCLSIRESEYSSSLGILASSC
T1 chain 2: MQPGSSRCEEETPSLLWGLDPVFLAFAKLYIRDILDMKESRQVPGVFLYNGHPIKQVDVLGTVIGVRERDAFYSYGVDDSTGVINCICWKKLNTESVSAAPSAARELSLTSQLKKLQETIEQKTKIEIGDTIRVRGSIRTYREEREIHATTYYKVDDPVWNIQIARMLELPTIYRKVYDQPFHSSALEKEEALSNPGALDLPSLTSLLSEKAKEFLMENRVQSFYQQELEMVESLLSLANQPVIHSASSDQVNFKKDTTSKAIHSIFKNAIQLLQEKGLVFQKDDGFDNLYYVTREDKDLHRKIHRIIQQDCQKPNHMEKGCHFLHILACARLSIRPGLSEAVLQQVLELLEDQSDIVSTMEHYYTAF
T1 chain 3: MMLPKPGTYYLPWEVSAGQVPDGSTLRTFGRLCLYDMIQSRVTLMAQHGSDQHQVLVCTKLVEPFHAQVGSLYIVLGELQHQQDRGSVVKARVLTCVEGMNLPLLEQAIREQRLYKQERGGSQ
Test: negative-stain EM
Details: remark: other sources report otherwise

stoichiometry N: 2
B1: CST with the His6-MBP tag cleaved, Q2NKJ3;Q9H668;Q86WV5 (complex)
chain 1: T1 chain 1
chain 2: T1 chain 2
chain 3: T1 chain 3
